In article PMC3240717:

Target: CD44-AFAP-110 complex (human (endogenous in MDA-MB-231)) (UniProt P16070)
Test: radioligand binding

UniProt P16070, sequence (P16070 21-742, chain 1 of 2): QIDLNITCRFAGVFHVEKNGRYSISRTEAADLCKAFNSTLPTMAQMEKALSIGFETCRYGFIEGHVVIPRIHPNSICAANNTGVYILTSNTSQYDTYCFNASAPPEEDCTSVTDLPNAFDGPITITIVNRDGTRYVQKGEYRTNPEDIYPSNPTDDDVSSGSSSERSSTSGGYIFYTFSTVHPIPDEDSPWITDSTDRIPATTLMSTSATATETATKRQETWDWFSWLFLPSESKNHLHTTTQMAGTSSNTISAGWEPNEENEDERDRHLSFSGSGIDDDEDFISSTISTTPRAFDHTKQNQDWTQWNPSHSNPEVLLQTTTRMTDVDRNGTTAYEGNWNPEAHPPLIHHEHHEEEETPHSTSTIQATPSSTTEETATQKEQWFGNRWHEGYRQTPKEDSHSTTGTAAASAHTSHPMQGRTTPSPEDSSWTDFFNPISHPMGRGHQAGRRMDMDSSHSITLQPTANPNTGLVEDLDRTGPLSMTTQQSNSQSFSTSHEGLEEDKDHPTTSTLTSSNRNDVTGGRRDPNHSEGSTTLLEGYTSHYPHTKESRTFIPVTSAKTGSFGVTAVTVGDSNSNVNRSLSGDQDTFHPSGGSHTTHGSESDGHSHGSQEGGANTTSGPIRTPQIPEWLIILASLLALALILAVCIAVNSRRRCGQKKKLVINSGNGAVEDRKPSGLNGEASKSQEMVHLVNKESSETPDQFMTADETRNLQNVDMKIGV
UniProt P16070, sequence (Q8N556 whole entry, chain 2 of 2, further chain): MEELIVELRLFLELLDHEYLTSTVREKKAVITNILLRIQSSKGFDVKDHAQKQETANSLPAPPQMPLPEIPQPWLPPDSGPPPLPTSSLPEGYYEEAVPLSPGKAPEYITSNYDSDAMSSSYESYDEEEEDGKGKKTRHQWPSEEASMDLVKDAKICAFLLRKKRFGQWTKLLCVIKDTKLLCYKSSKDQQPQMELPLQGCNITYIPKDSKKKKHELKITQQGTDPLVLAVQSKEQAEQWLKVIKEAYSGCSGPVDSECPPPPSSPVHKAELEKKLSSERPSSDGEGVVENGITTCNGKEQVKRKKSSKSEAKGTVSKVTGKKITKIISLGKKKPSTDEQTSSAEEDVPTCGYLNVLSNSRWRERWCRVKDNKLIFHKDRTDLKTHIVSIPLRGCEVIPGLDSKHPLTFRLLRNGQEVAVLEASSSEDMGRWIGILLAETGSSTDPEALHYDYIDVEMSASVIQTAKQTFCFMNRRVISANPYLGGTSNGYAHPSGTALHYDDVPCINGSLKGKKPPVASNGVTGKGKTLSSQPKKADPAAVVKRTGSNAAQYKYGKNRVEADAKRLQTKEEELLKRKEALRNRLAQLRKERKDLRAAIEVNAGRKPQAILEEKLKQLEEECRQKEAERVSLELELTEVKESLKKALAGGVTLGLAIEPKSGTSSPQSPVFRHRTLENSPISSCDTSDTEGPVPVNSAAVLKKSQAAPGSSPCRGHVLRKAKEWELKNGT

125I-F-actin bound, cpm (cells: HA fragment (2-3 disaccharide) treatment): 11700 cpm
125I-F-actin bound, cpm (cells: HMW-HA treatment): 13800 cpm
125I-F-actin bound, cpm (cells: LMW-HA treatment): 38400 cpm
125I-F-actin bound, cpm (cells: anti-CD44 IgG + LMW-HA treatment): 12500 cpm
125I-F-actin bound, cpm (cells: no treatment, control): 12700 cpm
125I-F-actin bound, cpm (cells: normal IgG + LMW-HA treatment): 38000 cpm
125I-F-actin bound, cpm (cells: normal IgG + no HA treatment): 12500 cpm
125I-F-actin bound, cpm (cells: scrambled siRNA, HMW-HA treatment): 11500 cpm
125I-F-actin bound, cpm (cells: scrambled siRNA, LMW-HA treatment): 31800 cpm
125I-F-actin bound, cpm (cells: scrambled siRNA, no treatment, control): 11000 cpm
Substance: filamentous actin (F-actin) (natural protein)
